What is called Kd is a measure of binding affinity in units of concentration. Low readings indicate a tighter complex, high ones a looser complex.

Our source for the Kd values is PMC9352680, “A comprehensive thermodynamic model for RNA binding by the Saccharomyces cerevisiae Pumilio protein PUF4”.

T1: PUF4 RNA-binding domain (Saccharomyces cerevisiae, UniProt P25339 537-888)
T1 sequence: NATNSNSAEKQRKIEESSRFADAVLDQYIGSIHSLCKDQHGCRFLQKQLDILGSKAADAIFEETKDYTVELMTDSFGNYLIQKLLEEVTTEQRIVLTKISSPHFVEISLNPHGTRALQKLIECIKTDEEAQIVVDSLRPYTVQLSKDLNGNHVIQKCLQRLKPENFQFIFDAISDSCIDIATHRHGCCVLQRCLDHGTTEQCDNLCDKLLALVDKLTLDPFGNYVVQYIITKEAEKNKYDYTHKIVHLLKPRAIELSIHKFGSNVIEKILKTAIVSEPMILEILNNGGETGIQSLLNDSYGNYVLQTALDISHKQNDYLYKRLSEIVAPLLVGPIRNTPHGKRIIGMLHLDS

In the data set the target is T1, PUF4 RNA-binding domain. Description: Mg; RNA-MaP; 20 mM Na-HEPES pH 7.4, 30 mM KOAc, 0.75 mM MgCl2, 0.1% Tween-20, 5% glycerol, 0.1 mg/mL BSA, 2 mM DTT; 25 C; 0.0125-409.6 nM protein. Conditions: tags: N-His6-TEV cleaved; C-SNAP kept, Cy3B-labelled; label: tethered on chip by stalled RNA polymerase.
Molecule UCUCUUAUUAUAUAUACCUCUCUU (ssRNA) [Id_ii_S1_P3E.3_K3.2_C3.2_[C-2A]_H3.2_A3.1_F3.1_T3.2_[T9C]_[A10C]] returned a Kd of 2290 nM.
With UCUCUUUUUACAUUAUCUCUU (ssRNA) [Ib_S1_P4E.1_K4.1_C4.1_H4.1_[G2T]_A4.1_[T5C]_F4.1_T4.1] the figure was 914 nM; with UCUCUUCGUAUAUAUACCUCUCUU (ssRNA) [Id_ii_S1_P3E.3_K3.2_C3.2_[T-1G]_H3.2_A3.1_F3.1_T3.2_[T9C]_[A10C]], 1710 nM.
With UCUCUUCAUAUAUAUACGUCUCUU (ssRNA) [Id_ii_S1_P3E.3_K3.2_C3.2_[T-1A]_H3.2_A3.1_F3.1_T3.2_[T9C]_[A10G]] the figure was 1120 nM.
The figure for UCUCUUCGUAUAUAUAACUCUCUU (ssRNA) [Id_ii_S1_P3E.3_K3.2_C3.2_[T-1G]_H3.2_A3.1_F3.1_T3.2_[T9A]_[A10C]] is 629 nM; for UCUCUUAUUAUAUAUACGUCUCUU (ssRNA) [Id_ii_S1_P3E.3_K3.2_C3.2_[C-2A]_H3.2_A3.1_F3.1_T3.2_[T9C]_[A10G]] it is 1860 nM; for UCUCUUCAUAUAUAUAUUUCUCUU (ssRNA) [Id_ii_S1_P3E.3_K3.2_C3.2_[T-1A]_H3.2_A3.1_F3.1_T3.2_[A10T]] it is 515 nM.
In turn, UCUCUUCUUAUAUAUAUAUCUCUU (ssRNA) [Id_ii_S1_P3E.3_K3.2_C3.2_H3.2_A3.1_F3.1_T3.2] had a Kd of 394 nM.
The figure for UCUCUUCGUAUAUAUAAUUCUCUU (ssRNA) [Id_ii_S1_P3E.3_K3.2_C3.2_[T-1G]_H3.2_A3.1_F3.1_T3.2_[T9A]_[A10T]] is 675 nM.
Molecule UCUCUUCAUAUAUAUAGCUCUCUU (ssRNA) [Id_ii_S1_P3E.3_K3.2_C3.2_[T-1A]_H3.2_A3.1_F3.1_T3.2_[T9G]_[A10C]] registered a Kd of 512 nM.
With UCUCUUAUUAUAUAUAGCUCUCUU (ssRNA) [Id_ii_S1_P3E.3_K3.2_C3.2_[C-2A]_H3.2_A3.1_F3.1_T3.2_[T9G]_[A10C]] the figure was 1310 nM.
The figure for UCUCUUCUUAUAUAUAAAUCUCUU (ssRNA) [Id_ii_S1_P3E.3_K3.2_C3.2_H3.2_A3.1_F3.1_T3.2_[T9A]] is 1180 nM.
The figure for UCUCUUAUUAUAUAUAUAUCUCUU (ssRNA) [Id_ii_S1_P3E.3_K3.2_C3.2_[C-2A]_H3.2_A3.1_F3.1_T3.2] is 424 nM; for UCUCUUCCUAUAUAUAUGUCUCUU (ssRNA) [Id_ii_S1_P3E.3_K3.2_C3.2_[T-1C]_H3.2_A3.1_F3.1_T3.2_[A10G]] it is 770 nM; for UCUCUUCUUAUAUAUAUCUCUCUU (ssRNA) [Id_ii_S1_P3E.3_K3.2_C3.2_H3.2_A3.1_F3.1_T3.2_[A10C]] it is 600 nM.
UCUCUUUCUACAUUAUCUCUU (ssRNA) [Ib_S1_P4E.1_K4.1_C4.1_H4.1_[G2C]_A4.1_[T5C]_F4.1_T4.1]: the Kd was 1450 nM.
The molecule UCUCUUUAUACAUUAUCUCUU (ssRNA) [Ib_S1_P4E.1_K4.1_C4.1_H4.1_[G2A]_A4.1_[T5C]_F4.1_T4.1] registered an equilibrium dissociation constant (Kd) of 23.8 nM.
With UCUCUUCAUAUAUAUACAUCUCUU (ssRNA) [Id_ii_S1_P3E.3_K3.2_C3.2_[T-1A]_H3.2_A3.1_F3.1_T3.2_[T9C]] the figure was 1300 nM; with UCUCUUCCUAUAUAUAUCUCUCUU (ssRNA) [Id_ii_S1_P3E.3_K3.2_C3.2_[T-1C]_H3.2_A3.1_F3.1_T3.2_[A10C]], 1000 nM; with UCUCUUCCUAUAUAUAAGUCUCUU (ssRNA) [Id_ii_S1_P3E.3_K3.2_C3.2_[T-1C]_H3.2_A3.1_F3.1_T3.2_[T9A]_[A10G]], 1540 nM.
With UCUCUUAAUAUAUAUAUGUCUCUU (ssRNA) [Id_ii_S1_P3E.3_K3.2_C3.2_[C-2A]_[T-1A]_H3.2_A3.1_F3.1_T3.2_[A10G]] the figure was 698 nM; with UCUCUUAUUAUAUAUAAUUCUCUU (ssRNA) [Id_ii_S1_P3E.3_K3.2_C3.2_[C-2A]_H3.2_A3.1_F3.1_T3.2_[T9A]_[A10T]], 814 nM.
With UCUCUUAUUAUAUAUAUCUCUCUU (ssRNA) [Id_ii_S1_P3E.3_K3.2_C3.2_[C-2A]_H3.2_A3.1_F3.1_T3.2_[A10C]] the figure was 993 nM; with UCUCUUCCUAUAUAUACAUCUCUU (ssRNA) [Id_ii_S1_P3E.3_K3.2_C3.2_[T-1C]_H3.2_A3.1_F3.1_T3.2_[T9C]], 1260 nM.
UCUCUUUUUAUCUUAUCUCUU (ssRNA) [Ib_S1_P4E.1_K4.1_C4.1_H4.1_[G2T]_A4.1_[A6C]_F4.1_T4.1] came in with a Kd above 2300 nM.
The figure for UCUCUUCAUAUAUAUAUAUCUCUU (ssRNA) [Id_ii_S1_P3E.3_K3.2_C3.2_[T-1A]_H3.2_A3.1_F3.1_T3.2] is 624 nM.
The molecule UCUCUUCCUAUAUAUAUAUCUCUU (ssRNA) [Id_ii_S1_P3E.3_K3.2_C3.2_[T-1C]_H3.2_A3.1_F3.1_T3.2] returned a Kd of 578 nM.
With UCUCUUGCACACUAUACCUCUCUU (ssRNA) [Id_ii_S1_P3E.4_K3.3_C3.2_[C-2G]_[T-1C]_H3.3_A3.1_F3.1_T3.2_[T9C]_[A10C]] the figure was 278 nM.
With UCUCUUCUUAUAUAUACUUCUCUU (ssRNA) [Id_ii_S1_P3E.3_K3.2_C3.2_H3.2_A3.1_F3.1_T3.2_[T9C]_[A10T]] the figure was 634 nM.
With UCUCUUCAUAUAUAUAGGUCUCUU (ssRNA) [Id_ii_S1_P3E.3_K3.2_C3.2_[T-1A]_H3.2_A3.1_F3.1_T3.2_[T9G]_[A10G]], binding was put at a Kd of 804 nM.
The figure for UCUCUUCUUAUAUAUACGUCUCUU (ssRNA) [Id_ii_S1_P3E.3_K3.2_C3.2_H3.2_A3.1_F3.1_T3.2_[T9C]_[A10G]] is 1260 nM; for UCUCUUCGUAUAUAUAGCUCUCUU (ssRNA) [Id_ii_S1_P3E.3_K3.2_C3.2_[T-1G]_H3.2_A3.1_F3.1_T3.2_[T9G]_[A10C]] it is 419 nM; for UCUCUUCCUAUAUAUACGUCUCUU (ssRNA) [Id_ii_S1_P3E.3_K3.2_C3.2_[T-1C]_H3.2_A3.1_F3.1_T3.2_[T9C]_[A10G]] it is 1950 nM.
Molecule UCUCUUCCUAUAUAUAGUUCUCUU (ssRNA) [Id_ii_S1_P3E.3_K3.2_C3.2_[T-1C]_H3.2_A3.1_F3.1_T3.2_[T9G]_[A10T]] displayed a Kd of 787 nM.
The figure for UCUCUUCCUAUAUAUAUUUCUCUU (ssRNA) [Id_ii_S1_P3E.3_K3.2_C3.2_[T-1C]_H3.2_A3.1_F3.1_T3.2_[A10T]] is 673 nM; for UCUCUUAAUAUAUAUAUUUCUCUU (ssRNA) [Id_ii_S1_P3E.3_K3.2_C3.2_[C-2A]_[T-1A]_H3.2_A3.1_F3.1_T3.2_[A10T]] it is 972 nM.
The figure for UCUCUUCAUAUAUAUAGUUCUCUU (ssRNA) [Id_ii_S1_P3E.3_K3.2_C3.2_[T-1A]_H3.2_A3.1_F3.1_T3.2_[T9G]_[A10T]] is 413 nM; for UCUCUUAUUAUAUAUAGUUCUCUU (ssRNA) [Id_ii_S1_P3E.3_K3.2_C3.2_[C-2A]_H3.2_A3.1_F3.1_T3.2_[T9G]_[A10T]] it is 544 nM.
With UCUCUUCCUAUAUAUACCUCUCUU (ssRNA) [Id_ii_S1_P3E.3_K3.2_C3.2_[T-1C]_H3.2_A3.1_F3.1_T3.2_[T9C]_[A10C]] the figure was 969 nM.
UCUCUUCCUAUAUAUAACUCUCUU (ssRNA) [Id_ii_S1_P3E.3_K3.2_C3.2_[T-1C]_H3.2_A3.1_F3.1_T3.2_[T9A]_[A10C]] gave a Kd of 1070 nM.
With UCUCUUCGUAUAUAUAUAUCUCUU (ssRNA) [Id_ii_S1_P3E.3_K3.2_C3.2_[T-1G]_H3.2_A3.1_F3.1_T3.2] the figure was 488 nM; with UCUCUUAUUAUAUAUAUUUCUCUU (ssRNA) [Id_ii_S1_P3E.3_K3.2_C3.2_[C-2A]_H3.2_A3.1_F3.1_T3.2_[A10T]], 383 nM.
With UCUCUUCUUAUAUAUACAUCUCUU (ssRNA) [Id_ii_S1_P3E.3_K3.2_C3.2_H3.2_A3.1_F3.1_T3.2_[T9C]] the figure was 907 nM.
Take UCUCUUUAUAAAUUAUCUCUU (ssRNA) [Ib_S1_P4E.1_K4.1_C4.1_H4.1_[G2A]_A4.1_[T5A]_F4.1_T4.1]: the affinity, expressed as Kd, was 128 nM.
The figure for UCUCUUCUUAUAUAUAUGUCUCUU (ssRNA) [Id_ii_S1_P3E.3_K3.2_C3.2_H3.2_A3.1_F3.1_T3.2_[A10G]] is 499 nM.
For the molecule UCUCUUGCACACUAUACGUCUCUU (ssRNA) [Id_ii_S1_P3E.4_K3.3_C3.2_[C-2G]_[T-1C]_H3.3_A3.1_F3.1_T3.2_[T9C]_[A10G]], the Kd stood at 671 nM.
Consider UCUCUUAAUAUAUAUAAAUCUCUU (ssRNA) [Id_ii_S1_P3E.3_K3.2_C3.2_[C-2A]_[T-1A]_H3.2_A3.1_F3.1_T3.2_[T9A]], for which the Kd was found to be 1290 nM.
Consider UCUCUUCUUAUAUAUAGCUCUCUU (ssRNA) [Id_ii_S1_P3E.3_K3.2_C3.2_H3.2_A3.1_F3.1_T3.2_[T9G]_[A10C]], for which the Kd was 77.5 nM.
As for UCUCUUCGUAUAUAUAAAUCUCUU (ssRNA) [Id_ii_S1_P3E.3_K3.2_C3.2_[T-1G]_H3.2_A3.1_F3.1_T3.2_[T9A]], binding was characterised by a dissociation constant (Kd) of 653 nM.
With UCUCUUCAUAUAUAUACUUCUCUU (ssRNA) [Id_ii_S1_P3E.3_K3.2_C3.2_[T-1A]_H3.2_A3.1_F3.1_T3.2_[T9C]_[A10T]] the figure was 618 nM.
For UCUCUUCAUAUAUAUAUCUCUCUU (ssRNA) [Id_ii_S1_P3E.3_K3.2_C3.2_[T-1A]_H3.2_A3.1_F3.1_T3.2_[A10C]], the Kd is 717 nM.
UCUCUUAUUAUAUAUACAUCUCUU (ssRNA) [Id_ii_S1_P3E.3_K3.2_C3.2_[C-2A]_H3.2_A3.1_F3.1_T3.2_[T9C]]: the Kd worked out at 599 nM.
The figure for UCUCUUCUUAUAUAUACCUCUCUU (ssRNA) [Id_ii_S1_P3E.3_K3.2_C3.2_H3.2_A3.1_F3.1_T3.2_[T9C]_[A10C]] is 1300 nM; for UCUCUUCCUAUAUAUAGCUCUCUU (ssRNA) [Id_ii_S1_P3E.3_K3.2_C3.2_[T-1C]_H3.2_A3.1_F3.1_T3.2_[T9G]_[A10C]] it is 980 nM; for UCUCUUCUUAUAUAUAGUUCUCUU (ssRNA) [Id_ii_S1_P3E.3_K3.2_C3.2_H3.2_A3.1_F3.1_T3.2_[T9G]_[A10T]] it is 109 nM.
With UCUCUUGCACACUAUACUUCUCUU (ssRNA) [Id_ii_S1_P3E.4_K3.3_C3.2_[C-2G]_[T-1C]_H3.3_A3.1_F3.1_T3.2_[T9C]_[A10T]] the figure was 122 nM; with UCUCUUCAUAUAUAUAAUUCUCUU (ssRNA) [Id_ii_S1_P3E.3_K3.2_C3.2_[T-1A]_H3.2_A3.1_F3.1_T3.2_[T9A]_[A10T]], 669 nM.
The figure for UCUCUUAUUAUAUAUACUUCUCUU (ssRNA) [Id_ii_S1_P3E.3_K3.2_C3.2_[C-2A]_H3.2_A3.1_F3.1_T3.2_[T9C]_[A10T]] is 528 nM.
